US20180126009A1 (SURGIMAB S A S, published 2018)
Values belong to the binder of their own block, whether it stands above or below them.

What was measured:
carcinoembryonic antigen [1] = molecular target: T1, carcinoembryonic antigen (UniProt P06731 35-685, limits assumed); test: SPR, BIACORE 3000, CEA thiol-coupled to CM5 chip, antibody in flow at 50 nM to 1.5 nM; chimeric antibody of Example 1, unlabelled
T1 construct: Antigen preparation used in the SPR assay; also called CEA
T1 sequence (looked up): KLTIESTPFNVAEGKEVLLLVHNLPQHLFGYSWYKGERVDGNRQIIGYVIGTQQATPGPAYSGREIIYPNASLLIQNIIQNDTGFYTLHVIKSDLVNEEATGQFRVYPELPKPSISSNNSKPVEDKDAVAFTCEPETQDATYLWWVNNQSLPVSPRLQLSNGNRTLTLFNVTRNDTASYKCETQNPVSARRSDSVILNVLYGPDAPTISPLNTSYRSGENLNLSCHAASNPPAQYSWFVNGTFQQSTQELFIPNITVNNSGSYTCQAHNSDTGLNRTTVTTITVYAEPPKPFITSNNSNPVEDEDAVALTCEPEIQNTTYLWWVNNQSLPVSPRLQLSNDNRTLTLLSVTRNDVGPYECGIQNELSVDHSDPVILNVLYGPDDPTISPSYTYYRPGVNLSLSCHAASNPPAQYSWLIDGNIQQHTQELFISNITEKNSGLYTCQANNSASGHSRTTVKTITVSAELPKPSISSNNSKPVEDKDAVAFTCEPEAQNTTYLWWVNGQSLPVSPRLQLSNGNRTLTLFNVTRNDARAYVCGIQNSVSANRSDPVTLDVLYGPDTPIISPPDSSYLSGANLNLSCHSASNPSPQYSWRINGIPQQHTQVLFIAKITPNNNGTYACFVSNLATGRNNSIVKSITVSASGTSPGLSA
Method: (§1) The affinity of the fluorescent conjugate as prepared in Example 3 to the target carcinoembryonic antigen was also determined, using surface plasmon resonance (SPR) on a BIACORE 3000 device. Carcinoembryonic antigen was coupled to a CM5 chip via the thiol groups (Surface Thiol Coupling GE healthcare; Instruction 22-0618-10AB). Association and dissociation rates were measured using in the flow 6 different concentrations (from 50 nM to 1.5 nM) of the chimeric monoclonal antibody of Example 1, the monoclonal antibody m511 (the original murine antibody from which the variable regions the chimeric monoclonal antibody of Ex. 1 is based) and fluorescent conjugate. Data acquisition and parameters calculations were performed using the Bia software and Bia evaluation programs.

carcinoembryonic antigen [2] = molecular target: T1, carcinoembryonic antigen; test: SPR, BIACORE 3000, CEA thiol-coupled to CM5 chip, antibody in flow at 50 nM to 1.5 nM; parental murine antibody m511
Method: as §1

carcinoembryonic antigen [3] = molecular target: T1, carcinoembryonic antigen; test: SPR, BIACORE 3000, CEA thiol-coupled to CM5 chip, conjugate in flow at 50 nM to 1.5 nM; chimeric antibody labelled with the near-infrared dye (conjugate of Ex. 3)
Method: as §1

Kd (carcinoembryonic antigen [1]): 32.7 pM
B1: anti-CEA chimeric monoclonal antibody of Example 1 (antibody, human IgG1, V domains shown)
VH: DVQLVESGGGLVQPGGSRKLSCAASGFTFSNFGMHWIRQAPEKGLEWVAYISGGSSTIYFADTLKGRFTISRDNPKNTLFLQMTSLRSEDTAIYYCARDYYINNYWYFDVWGAGTTVTVSS
VL: DIVMTQSQKFMSTSVGDRVSITCKASQNVRSAVAWYQQTPGQSPKALIYLASNRYTGVPDRFTGSGSGTDFTLTISNVQSEDLADYFCLQHWNYPLTFGGGTKLELK
notes: Expressed in CHO cells; 148.6 kDa by MALDI-TOF; also called chimeric mAb directed against CEA; anti-CEA chimeric mAb

Kd (carcinoembryonic antigen [2]): 38.2 pM
B2: monoclonal antibody m511 (antibody, V domains shown)
VH: DVQLVESGGGLVQPGGSRKLSCAASGFTFSNFGMHWIRQAPEKGLEWVAYISGGSSTIYFADTLKGRFTISRDNPKNTLFLQMTSLRSEDTAIYYCARDYYINNYWYFDVWGAGTTVTVSS
VL: DIVMTQSQKFMSTSVGDRVSITCKASQNVRSAVAWYQQTPGQSPKALIYLASNRYTGVPDRFTGSGSGTDFTLTISNVQSEDLADYFCLQHWNYPLTFGGGTKLELK
notes: Murine parental antibody; also called parental murine 511 antibody; original murine antibody

Kd (carcinoembryonic antigen [3]): 32.1 pM
B3: fluorescent conjugate of Example 3 (anti-CEA chimeric mAb of Example 1 coupled to the fluorochrome of Formula (IV)) (antibody, V domains shown)
VH: DVQLVESGGGLVQPGGSRKLSCAASGFTFSNFGMHWIRQAPEKGLEWVAYISGGSSTIYFADTLKGRFTISRDNPKNTLFLQMTSLRSEDTAIYYCARDYYINNYWYFDVWGAGTTVTVSS
VL: DIVMTQSQKFMSTSVGDRVSITCKASQNVRSAVAWYQQTPGQSPKALIYLASNRYTGVPDRFTGSGSGTDFTLTISNVQSEDLADYFCLQHWNYPLTFGGGTKLELK
modifications: cyanine fluorochrome (NHS ester of Formula (IV), giving moiety F of formula (II)) coupled to the antibody; average fluorochrome/antibody molar ratio 1.5-1.6; sites of coupling not stated
notes: In the tissue cross-reactivity study the conjugate was also biotin labelled; also called conjugate of Ex. 3
